# Laboratory results from the RNAGym collection of RNA variant scans (doi:10.1073/pnas.2313332121).
# B1: TPR t1 (parent)
# chain: GACCAAUCUGCCCUCAGAGCUCGAGAACAUCUUCGGAUGCAGAGGAGGCAGGCUUCGGUGGCGCGAUAGCGCCAACGUCCUCAACCUCCAAUGCAUCCCACCACAUGAUGAUGCCUGAAGAGCCUUGGUUUUUUG
# Variants of: B1
# Assay: polymerase ribozyme fitness, log enrichment relative to wild type (log ratio); higher = more active; in vitro selection for triplet polymerase activity
# In short: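 Libraries of mutants in each subunit of a heterodimeric triplet polymerase ribozyme were generated by PCR and transcribed. In triplicate, each went through one in vitro selection round: annealing with biotinylated primer, partner subunit and triplets; frozen incubation at −7 °C; gel excision of extended constructs; streptavidin-bead capture; RT-PCR. Fitness, taken from Illumina sequencing of input and output libraries, is the logarithm of a genotype's enrichment over wild-type enrichment, averaged across replicates with inverse-variance weights. The logarithm is base 2, and genotypes needed ≥10 input reads and ≥1 read per output to be kept.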
row,Variant,polymerase ribozyme fitness (log ratio)
1,G69A C124A,-0.616
2,C56G C73U,-0.89
3,C15U A83G,-1.88
4,G19U U55G C70U,-3.42
5,C15G G52U C89G G117C,-1.36
6,C4A C124U,-1.17
7,C62A G110C G127U,-5.37
8,G60U C89A A118G,-1.39
9,G36A C88A,-1.76
10,A6U G120C,1.12
11,C31U C89U U96A U106G U112A U130C,-4.19
12,A24U G39A,-7.92
13,U32A U33C G77C C102G G107A A121G,-7.93
14,G39U A84U,-1.03
15,A43U C73G,-2.69
16,U21A A50C,-0.532
17,G61C C124G,-0.476
18,A46U A83G G110A,-3.02
19,A37G G60U C80A,-5.24
20,A6G G19A A43U C123A G128A,-5.55
21,A5U G35U,-5.72
22,G58A U81C C85G,-2.26
23,C8G A75G C88A C124U,1.57
24,C56U C72U U112G G117U C124U,-2.21

row,Variant,polymerase ribozyme fitness (log ratio)
1,C49A G69C A83C A84U,-4.35
2,U9C G19C,-2.29
3,U9G G113A,-0.0202
4,G51C U129C,-3.96
5,A50C G61C U109A,-6.96
6,U14G G120C,0.117
7,C8U G10U C72U,-0.279
8,G25A C31U G63U G77U G117A C124U,-7.34
9,G44A U55C U81A,-2.83
10,G61A A84C,0.126
11,G44A G122A G128C,-3.84
12,C12U G120U,2.06
13,C72U C89A C104U U125G,-1.18
14,C20U A43G U78G U87A C89G,-5.4
15,G48U C73U,-1.06
16,A6C A50C U59C C72U U92G,-4.39
17,C31U C72U,-4.57
18,G39A A83U,-0.65
19,G63C G93U,-1.7
20,U14G U54C,-2.42
21,C13U C28G C101A C104A,-5.64
22,G36U A83C C104U U106G,-3.91
23,G35A G69C U87G,-5.37
24,C15U C62A C79A,-4.11

row,Variant,polymerase ribozyme fitness (log ratio)
1,U7G U78C,0.451
2,G23A A26G C104A,-5.12
3,A26U A84C C102U C115A U133G,-6.15
4,C8U U55G G113C,-1.85
5,C8A G63C C86A G93C,-3.35
6,C11G G77U C80U G113U,-3.12
7,C3U C40U G60U,0.0261
8,U87A A111G G127C U131A,-3.23
9,G45U G71A G93A,-2.09
10,G23C C49G G51C G61U G117U G128C,-6.88
11,C49G G69A A119U U133A,-3.06
12,C40U C73U,-0.508
13,C22A A29G,-4.8
14,C114A G122A,-2.53
15,C4G C40G,-2.02
16,C12A C62A C72U C98U U126C,-2.97
17,G51U G61C,-3.56
18,C34G G60A C70A A105U G117U U126A U129A U133G,-6.69
19,C8A A27G C56G U59G G113U,-4.68
20,C8A A83C A100C,-0.702
21,C8A C12A G61C G69U G120A U129G,-1.45
22,U9G A37C C40U C72U C123A,-0.161
23,U32C U87A,-0.0352
24,C12U A16G C73U C102A,-1.8

row,Variant,polymerase ribozyme fitness (log ratio)
1,C13A A43C G44A G77A A83U,-4.05
2,G44U C49A G110A,-3.22
3,U54A G71U U126G,-2.06
4,C73U A84U,-0.363
5,U7G A27G G48C C86G,-0.81
6,U9A C85A C97U G117C C124A,-3.01
7,A50C G60U C97A,-5.38
8,U38G C88U,-0.426
9,C56U A84G U133G,-1.14
10,G45U C64U U96A G110A G120C,-4.67
11,C8U G42A A111G U116A A121G C124G,-2.21
12,C73A C101G A119U,-1.93
13,G44C G47C C49U C97A C123U,-6.09
14,G61U A100C,-0.248
15,A27C C28A A103U A105U U106G A111U G117U C123U,-5.3
16,C12G A46G G63A C115G,-6.03
17,C62A G77C U87A,-1.71
18,G57U G110A G127A,-2.29
19,G52U C94U U106A A119G,-0.397
20,C13A A29G,-3.22
21,C20A A41C C82A,-4.5
22,C89G G127U,-2.9
23,C104G G113C,-6.7
24,C8G C79U G110C,-4.01

row,Variant,polymerase ribozyme fitness (log ratio)
1,G42A C70A C89A C124U,-4
2,C13G A66U C79U C102A,-4.83
3,C13U A43G G60A,-1.39
4,A5U C22A U112A,-2.64
5,G36U U125A U133A,-2.46
6,C20U C64U C114U A118G U131A,-0.511
7,U21A C56G C73A C99G G120A U131C,-7.97
8,G44A A111G,-0.69
9,A6C U54G C62U U92G,-4.44
10,G39A G51U A83G A95C C124A,-2.8
11,G42U G77U,-1.86
12,C53U C70A,-1.49
13,A50U G52C G58C C72U C88U,-4.47
14,G117U A118U U130C,-3.28
15,U59A A95U G128A,-2.84
16,C72U G77A A111U G113A,-5.99
17,U21G C53U C64U C79A,-3.11
18,G45C C115U,-3.17
19,C88A C94G U112C G120C,-1.09
20,C8U C15G A46U G113A,-5.27
21,A95C G120U,-0.765
22,A2U U9G G47U C88U G113A,-4.58
23,G71A C99U,-3.17
24,U33A G52U C115A,-4.73

row,Variant,polymerase ribozyme fitness (log ratio)
1,C11G C15G G113U,-4.66
2,C15A U54A C56G C72A,-2.89
3,C13U A41G A46G C53A U78C,-0.474
4,C28U G52U C73G U78G G120U,-4.03
5,C72U A74U U81C,-0.388
6,C72G C102A,-2.79
7,G60U G93A C98G,-6.44
8,G57C C82G A95G A111U C123U,-5.52
9,G71A U92A A121U,-2.31
10,U7C C11G C62A U96G,-1.18
11,G36C C40U G48U U125A,-3.35
12,C15A G45U A84U C123U,-2.4
13,C12G C13U,-0.223
14,C8G C102A,-1.02
15,G63A G110C C115G G120U,-7.28
16,A6U C56G U129A,-2.48
17,C70U U112A,0.732
18,G48U C102U,-3.66
19,U9G G10C C94G A121C C124G,1.48
20,U81G U112A,-4.16
21,G23U C64U,-4.56
22,A6U U78A C115G U116G,-2.95
23,A46U G60C U96C C123G,0.53
24,C11G G19A C56U C73U,-2.04

row,Variant,polymerase ribozyme fitness (log ratio)
1,C13U U129A,-0.61
2,U7G C80A C124A,-1.1
3,A46C C56A C85G,-5.4
4,C76U C82A C88U,-1.25
5,A29G C31G G63A A100U A121C,-7.06
6,A37G C49U C82A U87C U106G U133G,-2.13
7,A2U U14G U106G G120A C124G,-3.26
8,U55A G71U C102U A121G U132A,0.31
9,C22A A26G G39A G63C C99A C115G,-4.89
10,G19C C53A G93A C123U,-2.59
11,G51U U78G U112C C123A U130A,-3.11
12,C3U A27G G135U,-5.83
13,C56G C86A,-1.6
14,A18U C76A G93C,-4.09
15,G44C C98U,-2.37
16,A27U G44A U129A,-6.51
17,A66C U130G U133A,-1.91
18,A118G,-0.226
19,C15G A43U C56U,-3.19
20,C70G C124U U130C,-0.523
21,G42C C49U C79A C102G G120A,-7.51
22,G45U C53U,-2.81
23,G39C G71C C86U,-2.13
